Laboratory results: publication PMC4278837, “A Cyclic Peptidic Serine Protease Inhibitor: Increasing Affinity by Increasing Peptide Flexibility” (PLoS ONE, 2014)
Bridge positions count the residues as written; N and C are the ends. Square brackets hold non-standard residues; d marks the D form. Ends that are not written are not given here. Ala(1-amidino-4-piperidyl) = N=C(N)N1CCC(C[C@H](N)C(=O)O)CC1; Phe(4-guanidino) = N=C(N)Nc1ccc(C[C@H](N)C(=O)O)cc1

Tests used:
muPA-Y99A = biological target: T1, muPA-Y99A (murine); assay: enzyme inhibition (steady state, chromogenic substrate S-2444); about 2 nM enzyme (purified or conditioned medium of transfected cells) pre-incubated 15 min with varied peptide in HBS (10 mM HEPES pH 7.4, 140 mM NaCl) with 0.1% BSA at 37°C; substrate about KM; fit for competitive inhibition; highest peptide concentration 400 µM
T1 construct: site directed mutant of full length muPA; numbers count on: chymotrypsin numbering; Two-chain form after plasmin; source: HEK293 6E, transfected; treated with plasmin

muPA-K143A = biological target: T2, muPA-K143A (murine); assay: as above
T2 construct: site directed mutant of full length muPA; numbers count on: chymotrypsin numbering; Two-chain form after plasmin; source: HEK293 6E, transfected; treated with plasmin

muPA-K41A = biological target: T3, muPA-K41A (murine); assay: as above
T3 construct: site directed mutant of full length muPA; numbers count on: chymotrypsin numbering; Two-chain form after plasmin; source: HEK293 6E, transfected; treated with plasmin

muPA-V213T = biological target: T4, muPA-V213T (murine); assay: as above
T4 construct: site directed mutant of full length muPA; numbers count on: chymotrypsin numbering; Two-chain form after plasmin; source: HEK293 6E, transfected; treated with plasmin

muPA-S190A = biological target: T5, muPA-S190A (murine); assay: as above
T5 construct: site directed mutant of full length muPA; numbers count on: chymotrypsin numbering; Two-chain form after plasmin; source: HEK293 6E, transfected; treated with plasmin

[1] = biological target: T6, murine urokinase-type plasminogen activator (muPA) wild type (murine, UniProt P06869 21-433); assay: SPR; Biacore T200; uPA variant amine-coupled to a CM5 chip (about 500 RU); peptides injected in HBS with 0.1% BSA, 30 µL/min, 25°C, pH 7.4; 1:1 kinetic fit; KD = koff/kon; settings: both partners purified
T6 construct: cDNA encoding full length muPA; Two-chain form after plasmin; also called muPA wt; muPA-wt; source: HEK293 6E, transfected; treated with plasmin
T6 sequence (P06869 21-433): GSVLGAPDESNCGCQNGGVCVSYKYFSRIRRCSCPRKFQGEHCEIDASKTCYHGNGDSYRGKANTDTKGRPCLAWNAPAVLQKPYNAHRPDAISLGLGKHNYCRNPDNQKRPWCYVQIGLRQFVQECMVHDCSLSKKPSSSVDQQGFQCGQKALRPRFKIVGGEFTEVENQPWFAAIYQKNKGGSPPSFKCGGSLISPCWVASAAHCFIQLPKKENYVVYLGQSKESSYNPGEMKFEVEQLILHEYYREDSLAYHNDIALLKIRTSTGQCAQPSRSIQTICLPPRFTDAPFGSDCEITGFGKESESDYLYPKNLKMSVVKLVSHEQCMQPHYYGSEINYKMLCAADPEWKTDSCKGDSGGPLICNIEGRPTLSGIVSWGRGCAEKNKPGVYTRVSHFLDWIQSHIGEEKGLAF

[2] = biological target: T7, huPA-H99Y (full length human urokinase-type plasminogen activator with H99Y) (human); assay: as above; settings: both partners purified
[3] = biological target: recombinant catalytic domain of huPA-H99Y (residues 159-411) (human, UniProt P00749 179-431); assay: ITC; MicroCal ITC200; peptide injected into 5-50 µM huPA-H99Y catalytic domain; 20 mM sodium phosphate pH 7.4, 140 mM NaCl, 25°C; one-binding-site model; settings: both partners purified
huPA-H99Y-K143A = huPA-H99Y-K143A (human); assay: enzyme inhibition (steady state, chromogenic substrate S-2444); about 2 nM enzyme (purified or conditioned medium of transfected cells) pre-incubated 15 min with varied peptide in HBS (10 mM HEPES pH 7.4, 140 mM NaCl) with 0.1% BSA at 37°C; substrate about KM; fit for competitive inhibition; highest peptide concentration 400 µM
huPA-H99Y-Q192A = huPA-H99Y-Q192A (human); assay: as above
huPA-H99Y-V41A = huPA-H99Y-V41A (human); assay: as above
huPA-H99Y-R35A = huPA-H99Y-R35A (human); assay: as above
[4] = biological target: T6, murine urokinase-type plasminogen …; assay: as above
[5] = biological target: T7, huPA-H99Y (full length human …); assay: as above

**Q.** CPAYS[Phe(4-guanidino)]YLDC (disulfide 1-10) [mupain-1-12] was tested. Which Ki (muPA-Y99A) did it give?
**A.** Its Ki is 5200 nM.

**Q.** What about the Ki (muPA-K143A) of the same binder?
**A.** Its Ki is 1000 nM.

**Q.** What about the Ki (muPA-K41A) of the same binder?
**A.** The Ki was 1720 nM.

**Q.** What about the Ki (muPA-V213T) of the same binder?
**A.** The Ki was 86 nM.

**Q.** And the Ki (muPA-S190A)?
**A.** Its Ki is 2300 nM.

**Q.** And the Kd [1]?
**A.** Its Kd is 138 nM.

**Q.** What about the koff [1] of the same binder?
**A.** The koff was 0.0192 s⁻¹.

**Q.** And the kon [1]?
**A.** The kon was 156000 M⁻¹ s⁻¹.

**Q.** What about the Kd [2] of the same binder?
**A.** The Kd was 1210 nM.

**Q.** And the koff [2]?
**A.** Its koff is 0.246 s⁻¹.

**Q.** What about the kon [2] of the same binder?
**A.** Its kon is 206000 M⁻¹ s⁻¹.

**Q.** And the Kd [3]?
**A.** The Kd was 400 nM.

**Q.** What about the dH [3] of the same binder?
**A.** The dH was -10.5 kcal/mol.

**Q.** And the “stoichiometry N” value [3]?
**A.** Its value is 0.85.

**Q.** And the Ki (huPA-H99Y-K143A)?
**A.** Its Ki is 2140 nM.

**Q.** What about the Ki (huPA-H99Y-Q192A) of the same binder?
**A.** Its Ki is 2350 nM.

**Q.** What about the Ki (huPA-H99Y-V41A) of the same binder?
**A.** Its Ki is 1600 nM.

**Q.** What about the Ki (huPA-H99Y-R35A) of the same binder?
**A.** The Ki was 3260 nM.

**Q.** Which Ki (muPA-Y99A) does the source give for CPAYS[Ala(1-amidino-4-piperidyl)]YLDC (disulfide 1-10; not fully specified) [mupain-1-16] here?
**A.** Its Ki is 1240 nM.

**Q.** And the Ki (muPA-K143A)?
**A.** The Ki was 130 nM.

**Q.** And the Ki (muPA-K41A)?
**A.** Its Ki is 300 nM.

**Q.** And the Ki (muPA-V213T)?
**A.** The Ki was 13 nM.

**Q.** What about the Ki (muPA-S190A) of the same binder?
**A.** The Ki was 352 nM.

**Q.** And the Kd [1]?
**A.** The Kd was 89.4 nM.

**Q.** What about the koff [1] of the same binder?
**A.** Its koff is 0.00671 s⁻¹.

**Q.** What about the kon [1] of the same binder?
**A.** Its kon is 89800 M⁻¹ s⁻¹.

**Q.** What about the Kd [2] of the same binder?
**A.** The Kd was 844 nM.

**Q.** What about the koff [2] of the same binder?
**A.** Its koff is 0.0893 s⁻¹.

**Q.** And the kon [2]?
**A.** The kon was 107000 M⁻¹ s⁻¹.

**Q.** And the Kd [3]?
**A.** Its Kd is 380 nM.

**Q.** And the dH [3]?
**A.** Its dH is -7.93 kcal/mol.

**Q.** And the “stoichiometry N” value [3]?
**A.** Its value is 0.87.

**Q.** What about the Ki (huPA-H99Y-K143A) of the same binder?
**A.** Its Ki is 1130 nM.

**Q.** What about the Ki (huPA-H99Y-Q192A) of the same binder?
**A.** The Ki was 2710 nM.

**Q.** What about the Ki (huPA-H99Y-V41A) of the same binder?
**A.** The Ki was 1950 nM.

**Q.** What about the Ki (huPA-H99Y-R35A) of the same binder?
**A.** Its Ki is 2500 nM.

B1: mupain-1 (peptide)
peptide: CPAYSRYLDC
modifications: disulfide 1-10 (inferred)
notes: Synthesised on a resin with Rink amide linker; source: synthetic peptide (solid-phase synthesis, HPLC purified)
**Q.** How did the Kd [1] turn out when B1 was run?
**A.** Its Kd is 398 nM.

**Q.** What about the koff [1] of the same binder?
**A.** Its koff is 0.0364 s⁻¹.

**Q.** What about the kon [1] of the same binder?
**A.** Its kon is 91400 M⁻¹ s⁻¹.

B2: Mupain-1 D9A (peptide)
peptide: CPAYSRYLAC
modifications: disulfide 1-10 (inferred)
notes: mupain-1 with D9A; Rink amide linker resin; C-terminal amide surmised; source: synthetic peptide (solid-phase synthesis, HPLC purified)
**Q.** How did the Kd [1] turn out when B2 was run?
**A.** The Kd was 417 nM.

**Q.** What about the koff [1] of the same binder?
**A.** The koff was 0.0401 s⁻¹.

**Q.** And the kon [1]?
**A.** The kon was 98500 M⁻¹ s⁻¹.

**Q.** How did the Ki (muPA-Y99A) turn out when CPAYS[Ala(1-amidino-4-piperidyl)]YLAC (disulfide 1-10; not fully specified) [Mupain-1-16 D9A] was run?
**A.** Its Ki is 1360 nM.

**Q.** And the Ki [4]?
**A.** Its Ki is 76 nM.

**Q.** What about the Ki (muPA-K143A) of the same binder?
**A.** The Ki was 100 nM.

**Q.** What about the Ki (muPA-K41A) of the same binder?
**A.** The Ki was 14 nM.

**Q.** And the Ki (muPA-V213T)?
**A.** The Ki was 14 nM.

**Q.** And the Ki (muPA-S190A)?
**A.** The Ki was 529 nM.

**Q.** What about the Kd [1] of the same binder?
**A.** Its Kd is 21.3 nM.

**Q.** What about the koff [1] of the same binder?
**A.** The koff was 0.0122 s⁻¹.

**Q.** What about the kon [1] of the same binder?
**A.** Its kon is 579000 M⁻¹ s⁻¹.

**Q.** And the Kd [2]?
**A.** Its Kd is 71.8 nM.

**Q.** What about the koff [2] of the same binder?
**A.** Its koff is 0.0333 s⁻¹.

**Q.** And the kon [2]?
**A.** The kon was 465000 M⁻¹ s⁻¹.

**Q.** What about the Kd [3] of the same binder?
**A.** The Kd was 134 nM.

**Q.** And the dH [3]?
**A.** Its dH is -11.1 kcal/mol.

**Q.** What about the “stoichiometry N” value [3] of the same binder?
**A.** Its value is 0.88.

**Q.** And the Ki (huPA-H99Y-K143A)?
**A.** Its Ki is 188 nM.

**Q.** And the Ki [5]?
**A.** Its Ki is 309 nM.

**Q.** And the Ki (huPA-H99Y-Q192A)?
**A.** The Ki was 438 nM.

**Q.** What about the Ki (huPA-H99Y-V41A) of the same binder?
**A.** The Ki was 480 nM.

**Q.** What about the Ki (huPA-H99Y-R35A) of the same binder?
**A.** The Ki was 174 nM.
